Test: soluble on expression in E. coli; label from the status in PepcDB or PDB records

| Sequence | soluble on expression in E. coli |
| --- | --- |
| MSLSKDEELLQNYCSILFTYKTIGISNLHLYYFRETEIKSLKQLINAEFAILQTCNRVEIYLYSDTNTLKEVNKIIQYLNNIHNEPIGNQARVLCGKDAAKHLFLVASGADSLSIGEYEILSQIRSTIDMFKKLGFSGKYLQIFFERAIKVGRKVREETSISKGKVGIYSLAIDEAKKRFNDFYDRRILVIGAGEMAQKITSMLHNEGAKDVTIMNRTIEKAKQLALKFGYNYEKLDLDKLGNFDVAFISIYHENLRLENKWNTLIVDITVPPLFTGNNVITLEELERISNLNFKAREEELAKINKLVEDGINELLYDYKKEIYTEFMSKIMKREGHHHHHH | soluble |
| MSLSKFAERLQTVANKPEVFQKFSRGLERESLRYTPEGALTQTPHPKALGAALTHRWITTDFAESLLEFITPVSHEVDTLLAQMSDIHHFAQTKLGDEKLWPLSMPCYVGSEEGIVLAQYGSSNTGKMKTLYREGLKRRYGSLMQIISGVHFNFSFPESFWDALFGEQEESARQASKSAAYFGVIRNYYRFGWLIPYLFGASPALCSSFLQGRKTDLPFESIGKTLYLPYATSLRLSDLGYTNSAQSVLQIGFNSIEQYLQGLNEAIRTPSAEFAKLGVKVEGEYRQLNSNVLQIENELYAPIRPKRVTQSGERPSQALARAGVEYIEVRSLDVNPFSPIGINEDQVRFLDLFLAWTALSDSDPMDGCELACWRDNWRKVVLEGRKPGLELQIGCHGEVLTLQAWAKRVFADLRVIAETMDAALGGDAYQAVCAKLETWIENPELTLSAQILAEIKQHGGLGKTGCALGNEYRAVNLQHQYQFYSQDEMEQEVRRSTQAQADIEAKETLNFDAYLTQYFAYLQAVSEGGSHHHHHH | soluble |
| MSLSKTLLEIRLNSLIDLRMFYFISLYFRLENKESHKSQEIGNLIRVYNRSKREEAESEPLNLYVEDEKGNLLAGLIAETFGNWLEIEYLFVKEELRGQGIGSKLLQQAESEAKNRNCCFAFVNTYQFQAPDFYQKHGYKEVFSLQDYLYIRQRYYYQKNLEGHHHHHH | not soluble |
| MSLSLPSSHFVLIAEEENNSYWRLVEKGAREAENQFDVLVEYKAPKRSNPEEQLKLIDMAISAKVDGIIVQAVNEEMFTPLINKAVDAGIPVITIDTDAPRSNRVAYIGTDNYYSGTIAGKAMLDDMEGDIHVAVITGSLESSHQKLRVQGFIDMISNEPRVTLVEVEASNISRLEAELKAHQLMEEHPHINAFYGTSALDGIGIVAAAEKLGLDDLYVIAFDTLPENLSLLEQEKIDAIVVQEPFEMGLKSVELLLDIREGQPYSMTNHTHTSIIRKPDLSLLQEHQRLGDEGHHHHHH | soluble |
| MSLSLSTIICIGMAGSGKTTFMQRLNSHLRAEKTPPYVINLDPAVLRVPYGANIDIRDSIKYKKVMENYQLGPNGAIVTSLNLFSTKIDQVIGLVEQKKDKFQNCIIDTPGQIECFVWSASGAIITESFASSFPTVIAYIVDTPRNSSPTTFMSNMLYACSILYKTKLPMIVVFNKTDVCKADFAKEWMTDFESFQAAIKEDQDLNGDNGLGSGYMSSLVNSMSLMLEEFYSQLDVVGVSSFTGDGFDEFMQCVDKKVDEYDQYYKQEREKALNLKKKKEEMRKQKSLNGLMKDLGLNEKSSAAASDNDSIDAISDLEEDANDGLVDRDEDEGVEREYTFPGEERTKGEVNENSAPDLQRRYQEAMQQVGKTASSETAENIAKYIRNEGHHHHHH | soluble |
| MSLSNDIELTIDIELQSYLTSLFEGNAGAAIIMNVNDGSILAAGSFPEYDLNPFVTGISFKDWDELSNSLDHPFTNKLINGYYPPGSVVKMGVGLSFLNSKNISPSTHYVCNGSIELGGRFFRCWNRSGHGPVDLKHAIKYSCDVYFYNGSLQVGIDQISETLSRIGFGVKTGVDLPSEFVGTLPSKEWKMQRYRQSWFQGDTLNTAIGQGNFLATPMQIARYTAQIAKSGEVIPHFLKSIENNNTTIENQMDENKKEIFTLFEKSQLPYIRDAMYAVANEQGGTSYRYLHNLDVKVAAKTGTAQVVGFSQTDKNRVDEKQFEYYTRSHAWLTSYAPYSKPKYVVTVLLEHGGRNITSGATVAKIYQKMIELGYFKEGHHHHHH | not soluble |
| MSLSNQLLLGMSEFGLSYIINFSEFNQHVLVPATTGSGKTTLLQLLVQHAVKFNFPVILIDGKGARDTLESMREIAKFYDKEVHAFTDDGDMRYNPVEHGNDISIRDKLVSLAETESVFYSGAAKALLQVTIQLLDEFKGAKVTLSGDTRTTETVERSLPFVQRFLLPRNVLHLFADAILPNNPKLFEIEVEKKIQKPKKKSVKEGSEILPDSDLDKEEKEEDSQIKNSKFRNISQLGIAQKETETIVLNPETLDLDSYYLLLKRNLRYLPTDKETGENIKQKLFERLFIRYEHKDSPFYLYATSEALQTNINMLLDSELGKLFDTKNAKNVLDVQEIVNQRKLVYVSFNGLIYKEYIRTLAQMLVGDVNYFASEMYRKNVKREVLVIFDEPASYLNETFIDMVNKGRGAGVYGIFTPQTMADIAKLGDKLMEQLVGNVNTLFIGKTNEKGEAEYWSETMGTYQDIDVTSVTEQEDGYSDVGKSDWSGDRGTKRNVDRFKISPNKIKELRTGEFIIYRTAENVNLPPQKVYVRNALEWLQKSNSEGHHHHHH | soluble |
| MSLSNYISIKGAKVNNLKNIDVNIPRNKLVVITGLSGSGKSSLAFDTGKTICPVCHGTRLKKEAGYVKVGGKSISQLVDLPIHDLKEFFRTLELDAHDTAIAKRILTEITNRINFLMDVGLGYLTLNRLSNSLSGGESQRINLATSLGSSLVGSLYILDEPSIGLHSRDTDRLIKVLRQLQELGNTVVVVEHDEEIIRAADYIIDIGPQAGRLGGQIVYQGNMNDLQRNSNSYTVRYLLGEEGHHHHHH | soluble |
| MSLSQASTVCALNDHLPNTVLRLPLKYPSTNKELKSHEYFESQIAYTGCLIATTTHMVDHISWRLNNDLKTITLTPICISNPFQLECRTISLLLPSQVYPHCIDAVYHGEEGGYLVVDVIDENYLWITLRIEMNDFLHNTKNFRPLTLDQFESWGHISVPYSFELRSNPYCLRVLDERNVVVSLKDGGLLHFQRSSVLADFNVFNCEESAHFHLGGILDGIFKSGRADLTVDGVSSNAAIDATIVPDPSKSLIATLTVSKTIKFWDLKEHSLLRERTIHPQDTNTWLSFGPARYLQCYGNVLGVHSLLQTKHSTSIDFWDVSPLKEDQKSYKILHTVELLSPTINGAPSDSPFSNDIWFIQDFTLKFEKGNFTVLWKSNNSSILTIYDLKNLAENDKPPKLSQWTLSGSEGHHHHHH | soluble |
| MSLSRIIVVTSGKGGVGKTTSSAAIASGLALRGKKTAVIDFDIGLRNLDLIMGCERRVVYDFVNVINGEATLNQALIKDKRNENLFILPASQTRDKDALTKDGVQRVLNDLKEMGFDFIICDSPAGIEQGALMALYYADEAIVTTNPEVSSVRDSDRILGILDSKSMRAEQGQAPIKQHLLLTRYNPARVTQGEMLSVQDVEEILHVPLLGVIPESQAVLNASNKGVPVIFDDQSDAGQAYQDTVARLLGEQVEFRFLTEAKKGIFKRLFGGEGHHHHHH | soluble |
| MSLSRRGRPKIPRFISEEPKFRIFKPHGVSLTEVDKVILSVDELEAIRLVDYLDYTQEEASKLMGISRRVLWSLLTEGRKKIADALINGKAIVIEGGEYKIRECGFCMRHRFGIKKHCRTWREELEGHHHHHH | not soluble |
| MSLSRSEEMHRLTENVYKTIMEQFNPSLRNFIAMGKNYEKALAGVTYAAKGYFDALVKMGELASESQGSKELGDVLFQMAEVHRQIQNQLEEMLKSFHNELLTQLEQKVELDSRYLSAALKKYQTEQRSKGDALDKCQAELKKLRKKSQGSKNPQKYSDKELQYIDAISNKQGELENYVSDGYKTALTEERRRFCFLVEKQCAVAKNSAAYHSKGKELLAQKLPLWQQACADPSKIPERAVQLMQQVASN | soluble |
| MSLSRYPQLIQEQILKCKESWDSNSYKTSLRSFVYNKVNETDAILYTKPTNVSQEEWDKAIENKPSSDLIPIQVFGFEGLNNRNQIQVENVAQARVILNQILDKTKQLQQSHSFETSARIMKVQARNAQIEKRILKLGTQLAILKNRRLPLTISEEKMWGQFQELLKSSNDPAGLGKTNELWARLAVLRERAKTISEQLDSKLVIIGENGGQTGKPSASGDNNRVSDEVYDRIDKIAEILKNQQSGIAYLNDVLEKDNKALDSVVELKEGHHHHHH | soluble |
| MSLSTERTERVRPQRVEQNLPPLSWGGSGVQTAYWVQEAVQPGDSLADVLARSGMARDEIARITEKYGGEADLRHLRADQSVHVLVGGDGGAREVQFFTDEDGERNLVALEKKGGIWRRSASEADMKVLPTLRSVVVKTSARGSLARAEVPVEIRESLSGIFAGRFSLDGLKEGDAVRLMYDSLYFHGQQVAAGDILAAEVVKGGTRHQAFYYRSDKEGGGGGNYYDEDGKVLQEKGGFNIEPLVYTRISSPFGYRMHPILHTWRLHTGIDYAAPQGTPVRASADGVITFKGRKGGYGNAVMIRHANGVETLYAHLSAFSQAEGNVRGGEVIGFVGSTGRSTGPHLHYEARINGQPVNPVSVALPTPELTQADKAAFAAQKQKADALLARLRGIPVTVSQSDEGHHHHHH | soluble |
| MSLSTFRSIEWKKDKLVLLDQRYLPEKTLYLELKTVDEVARAIKEMTVRGAPAIGVAAAYGMVLCVQKLSKNDDLIRELQKADDLLRASRPTAVNLFWALDRMKKIWQGFNGSLEDLKMILEKEATDIEREDVEINKQIAKNGVELVPFGAKIIHHCNTGSLATVDYGTALGVIRYAHEIGKKIHVFLDETRPRLQGARLSAWEMKELGIPHTIIVDGASGLVMKKFKIDLALVGADRIAANGDTANKIGTYNLAIVAKYHNVPLYVVAPTSTIDLKTPAGQDIPIEERSADEIRCVGNSQVAPQESPVFNPAFDVTPAELISGIITEKGIVYPPFKENLRKLFESAEGHHHHHH | soluble |
| MSLSTIYDIAKHAGVSKSTVSRVLNNQANISEESRKKVLAAIDQLNYQPSKLARALTSSGFDAIMVISNRSTTTTTGNPFFSEIIQSISTQAELENFDLILQTAKNSEDELKKCLSKIQEKMIKGIIMLSSPADEDFFHQLDPYNIPIVVTGKVEGHYKNIYSVDTDNFGDSYALTKHLIKQGHQKIACIHAPLDYHVSIDRLAGFRSCLFDHQLDLRNDWIIDSGYSIEDSYKAALRLMEGPDKPTAVFATDDLKVLSIYKMAADKNLQIPTDFSVIGYNDKVASSFLSPPLTSIDIPINKLGKKATNLLFRLIHQDKNVPKTTIIQTEMIERESIQKINEGHHHHHH | not soluble |
| MSLSYPYYIVDAFAEEVFKGNPAAVYVLEKWLPEAVMQNIAIENNLSETAFTVKEGQSYALRWFTPEREIDLCGHATLATAFVLFNYYSVAEETLHFTSQSGPLAVTKKEEYYYLDFPYILPERIPILPEYEAALGTKIYEAYLGRDLFFVLKDEETVAKITPDFSALKALDLGVGVIVTASGDSVDFVSRTFFPKLRINEDPVCGSAHANLIPYWGKRLNQTTLSAYQVSPRGGFLTCEVKENRVIIGGTAKLFAKGEAYLPVEGGSHHHHHH | soluble |
| MSLSYRIDVLLFNKFETLDVFGPVEIFGNLQDDFELNFISSDGGLVESSQKVRVETSLYTRDENIEKILFVPGGSGTREKVNDDNFINFIGNMVKESKYIISVCTGSALLSKAGILNGKRATTNKRSFKWVTEQNEDVLWVKEARWVKDGNIYTSSGVSAGIDMTLGFIEDLIGKEKALEISRSIEYFWNEDSNYDPFSKIYGEGHHHHHH | soluble |
| MSLTALQQMTVLFVDDEEIAREQMKMVLSSFCKNTICVGSADQALAALQEHHPDIVLTDIRMPGLSGIELLNAVKQKDASVAVVIVSAHSESEYLLDAFRYKADGYLLKPFNFHEMLELLSDIATQKEAASSERKQGPDNRDFLLKILDTLGGRRAEIMEYVINHLDADNLFHGTYDEVAEALSASKPTVVATFQIMLEKNVLTRLKYGTYRMNVDATEGHHHHHH | soluble |

— the DeepSol protein solubility set
